From paper PMC8064603

Target: bovine RNase B, biotinylated (bovine) (UniProt P61823)
Assay: BLI; biotinylated RNase B captured on streptavidin biosensors; purified fimbriae at 50 and 100 nM as analyte; 0.2% BSA in HBS; global fit: conformational change model for FimH^wt, 1:1 Langmuir model for FimH^FocH; one representative experiment

Chain of UniProt P61823 (P61823 27-150): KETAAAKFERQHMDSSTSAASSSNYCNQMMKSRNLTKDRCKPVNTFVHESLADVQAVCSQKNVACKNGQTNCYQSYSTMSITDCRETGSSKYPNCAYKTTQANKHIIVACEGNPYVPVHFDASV

Substance: purified type 1 fimbriae carrying wild-type FimH adhesin (FimH^wt) of E. coli K12 (from UniProt P08191 22-300) (complex)
- Kd: 149 nM
- kact (rate of transition from LAS to HAS, conformational change model): 0.0072 s⁻¹
- kinact (rate of transition from HAS to LAS, conformational change model): 0.0128 s⁻¹
- koff (LAS dissociation rate, conformational change model): 0.256 s⁻¹
- kon (LAS association rate, conformational change model): 1.1e+06 M⁻¹ s⁻¹
